According to the RNAGym collection of RNA variant scans (doi:10.1073/pnas.2313332121):
Variants at the floor of the assay were thinned out.

B1: TPR 5TU (parent)
chain: GGAUCUUCUCGAUCUAACAAAAAAGACAAAUCUGCCACAAAGCUUGAGAGCAUCUUCGGAUGCAGAGGCGGCAGCCUUCGGUGGCGCGAUAGCGCCAACGUUCUCAACUAUGACACGCAAAACGCGUGCUCCGUUGAAUGGAGUUUAUCAUG

Variants of: B1
Experiment: polymerase ribozyme fitness, log enrichment relative to wild type (log ratio); higher = more active; in vitro selection for triplet polymerase activity
Outline: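 For each subunit of a heterodimeric triplet polymerase ribozyme, a mutant library was built by PCR and transcribed, then taken through a single in vitro selection round in triplicate. Selection involved annealing to a biotinylated primer, the partner subunit and triplets, incubation frozen at −7 °C, gel excision of extended constructs, capture on streptavidin beads and RT-PCR. Genotypes were retained after Illumina sequencing of inputs and outputs only with ≥10 input reads and ≥1 read in each output. Fitness is defined as the logarithm of a genotype's enrichment relative to wild-type enrichment, using inverse-variance-weighted averages across replicates, with the logarithm taken to base 2.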

Variant	polymerase ribozyme fitness (log ratio)
U56C G58A G84A U145G	0.113
U56G C85G	-2.54
U56G G100U U134A U146A U148A	≤ -4.2
C57U A66C G92U C93A	≤ -4.2
C57U G83A G88A A89G U134G	≤ -4.2
G58A A98G G100A U104G A113G A119U A120U A122U U145C	≤ -4.2
C57A C95U C149U	-0.536
C57U C85A G133C G136A	-1.86
C57G G86C	-3.04
C57G G86A	-1
C57U C85G	-2.48
G58A C87U G92A A150G	-0.884
C57G C85U G117U C118G	-1.51
C57G G58C A137C	-3.85
U56G C108A	≤ -4.2
C57A A89U A98G	0.118
C57U A64C A89U G128U U148A	≤ -4.2
C57A U139A	-3.84
C57G U82A A98G	-3.69
C57U U78A G80A A138G U139G	≤ -4.2
C57U A138U U145G	-3.98
C57A A138C	-3.77
U56C U78G G80A G84C	≤ -4.2
C57G C95U	-1.18

Variant	polymerase ribozyme fitness (log ratio)
C57U U135G	-4.05
C57A G92U	-0.638
U56A U148G	-3.6
C57U G83C	-0.999
U56C C75A G88C C99G	≤ -4.2
C57U A113C	-2.27
U56A U101A	-0.244
C57G G84A C103U A110G	-3.52
U56G C63U C93G	-3.47
C57A G65A G84U A120G	-3.08
C57G G92U	-0.526
U56C C96U	-0.496
G58A A73G C116U	0.431
U56C G81U G92U C108G	≤ -4.2
U56G G88U G92U C96U C125A	-3.87
C57G	-0.448
C57A	-0.00233
C57U	-0.0371
C57A C105U	1.29
C57A G92U C105G	-1.2
C57A G58U	0.207
C57A G58A	1.15
C57A U135C	-1.62
G58A A64G A91C A147U	≤ -4.2

Variant	polymerase ribozyme fitness (log ratio)
C57U G88U G100A A107C	≤ -4.2
G58A C72U C76A	-1.3
G58A C75U	-1.82
C57A C76U C85U G92C G126C	-2.15
C57G G86A C95U C99U G141U	-3.92
C57G G83U	-0.732
C57G G83A	-1.02
C57G G143C	-1.72
C57U C79G	-3.67
U56A U102G	-2.4
U56G C76U A91G A122U C149G	≤ -4.2
C57A U78G A97G G117A A122G	≤ -4.2
U56G C93U	-3.02
C57G C116A	1.35
C57A C96U G124A A150C	-3.99
C57A U127A	-3.56
C57A G100C	≤ -4.2
U56G C76A U77C C93G C105A U109G	≤ -4.2
U56A U90C U144G	-3.91
C57U C93A G126C	-0.766
G58A C96A A97G A106C A119U	-1.42
U56G C63A A120G	-0.244
C57G G67C	-4.16
C57U C105G	-0.3

Variant	polymerase ribozyme fitness (log ratio)
C57U C105A	-0.73
G58A A60C C63A U82G G88C C95A A113G A147G	≤ -4.2
C57U C63U G65U G88A A138U	≤ -4.2
C57A G59C U146C U148A C149U	-3.99
G58A A142U	-0.199
U56C U109A U127C	-3.65
C57U C76A C93U C116A U151G	≤ -4.2
C57A G62C C76U A91U C108U G140U U144G C149G	≤ -4.2
C57U C93G	-3.36
C57U C93A	-1.61
C57A A89G C95U A119U A120U C125U	-1.54
C57U G126C	0.553
U56C U82G	-0.541
G58A C85G G100U U144A	≤ -4.2
G58A C87A A98G A121C	≤ -4.2
G58A A73C	-1.62
C57A A64G A66G C118U A147C G152U	≤ -4.2
C57G C79U	-2.13
G58A A89U C96A A115G	-1.15
G58A C103A	-1.19
U56G U82A A89G C95U G133C	-3.49
C57U U61A G81C A107U	≤ -4.2
C57A C72U A150U	-0.157
C57A G70A G86U C96A C99U U134C U146C	≤ -4.2

Variant	polymerase ribozyme fitness (log ratio)
C57A A91G	-2.76
C57U C87G	≤ -4.2
U56G U135A	-1.84
U56G U135G	-3.68
U56C C95A U102A	-1.87
C57U C96G U130A	-3.15
C57A A113C A119U	-1.37
C57A A60G U101A U109A A113U	-3.65
C57G C72G C79U C103G	≤ -4.2
G58A A64U G74A C79A U90C C96A C149A	≤ -4.2
G58A A97U A107U	-4.18
U56C C87U A89G U101G	-2.81
C57G U77C G84A U134A	≤ -4.2
C57U G59A C85U C95G	-2.02
C57A A150U	1.72
C57G G58U A137G G143A	-2.87
C57G U146A	-0.273
C57A G65A U82G	-0.673
C57G G58A A91G	-3.24
C57G G59U C85U	-1.11
C57G G59C G86A A142G	-3.23
G58A C87U	-0.808
C57A U82G G84U C95A	-0.701
C57A A73G C125A	-0.303

Variant	polymerase ribozyme fitness (log ratio)
C57G G141A	0.453
C57G A120U U144A	-1.24
U56G C93U A110U	-3.71
C57U U127C	-2.13
C57U A97G G128C G141C	-3.99
G58A C75U C118G	-0.168
U56G G68U	≤ -4.2
C57A G83C G141A	-0.777
U56G C79U U90A A107U C114G	≤ -4.2
C57A G94A	-0.487
G58A C63G G86U G94C A137C G141U U151C	≤ -4.2
U56G C57A G81A A107C G117A	≤ -4.2
U56C C108U	-4.01
C57G G58A G86U	-1.7
C57A U90A A91U A138U	≤ -4.2
C57A A113U	-1.86
C57G A121U U135C	-2.26
C57G A60C	-2.4
C57G C96G U145A	-0.71
C57G G94C A98G C105U	-0.386
G58A C76A G80C C85U A89G U90C U101G C149A	≤ -4.2
C57A A60C	-1.35
C57U C116G	0.474
G58A C85U A115U U144G	-1.46

Variant	polymerase ribozyme fitness (log ratio)
C57A C85G	-1.75
C57A C85A	-1.28
C57A C85U	-0.0999
U56A U130A A147C	-3.18
C57A U102C C103U	-2.76
C57U G70A G83C U139G	≤ -4.2
C57G C96A	-0.472
C57G G94A G141C	-0.316
C57A A60C C85A	-3.08
C57G G74C	≤ -4.2
U56C G68U A121G U148A	≤ -4.2
U56G U78C C85A C123U	-1.43
C57A G80C A137C G143U	≤ -4.2
C57U C85A G100U A115G U135A G141C	≤ -4.2
C57U C75U A107U U127C A150G	≤ -4.2
U56A U146A U148C	-2.96
C57G C75U C108A A110G	≤ -4.2
C57A A60G G74U	-4.12
C57U C69G G84A C85G	≤ -4.2
C57G A91G A147C	-3.13
U56G U146G	-3.46
U56C G143U	-2.95
C57G G65C G84A U139A G140U	≤ -4.2
